Data on two molecules can be found in article PMC4183563, “Protospacer Adjacent Motif (PAM)-Distal Sequences Engage CRISPR Cas9 DNA Target Cleavage”.

Residue numbers refer to the chain shown, from its start.

As usually defined, the Kd is the concentration at which binding is half-saturated.

Data set [1] addresses T1, Cas9 (wild type) (Streptococcus pyogenes, UniProt Q99ZW2 1-1368). Briefly: EMSA; 20 nM crRNA cr20, 20 nM tracrRNA; EMSA: 1 nM 32P-dsDNA, 10 nM Cas9 (or titrated), 20 nM tracrRNA, 20 nM crRNA, 2.5 ug/ml heparin, 5% native PAGE; buffer, pH and temperature as in cited ref 11 (not given). The following applies: protein: recombinant; label: 32P on DNA; duplex DNA; crRNA:tracrRNA guide.

The target in data set [2] is T1, Cas9 (wild type). Briefly: EMSA; cr20 + tracrRNA; EMSA: 1 nM 32P-dsDNA, 10 nM Cas9 (or titrated), 20 nM tracrRNA, 20 nM crRNA, 2.5 ug/ml heparin, 5% native PAGE; buffer, pH and temperature as in cited ref 11 (not given). Particulars: protein: recombinant; label: 32P on DNA; duplex DNA; crRNA:tracrRNA guide. In general terms: In EMSA bound probe runs differently from free probe, usually more slowly.

T1 sequence (Q99ZW2 whole entry): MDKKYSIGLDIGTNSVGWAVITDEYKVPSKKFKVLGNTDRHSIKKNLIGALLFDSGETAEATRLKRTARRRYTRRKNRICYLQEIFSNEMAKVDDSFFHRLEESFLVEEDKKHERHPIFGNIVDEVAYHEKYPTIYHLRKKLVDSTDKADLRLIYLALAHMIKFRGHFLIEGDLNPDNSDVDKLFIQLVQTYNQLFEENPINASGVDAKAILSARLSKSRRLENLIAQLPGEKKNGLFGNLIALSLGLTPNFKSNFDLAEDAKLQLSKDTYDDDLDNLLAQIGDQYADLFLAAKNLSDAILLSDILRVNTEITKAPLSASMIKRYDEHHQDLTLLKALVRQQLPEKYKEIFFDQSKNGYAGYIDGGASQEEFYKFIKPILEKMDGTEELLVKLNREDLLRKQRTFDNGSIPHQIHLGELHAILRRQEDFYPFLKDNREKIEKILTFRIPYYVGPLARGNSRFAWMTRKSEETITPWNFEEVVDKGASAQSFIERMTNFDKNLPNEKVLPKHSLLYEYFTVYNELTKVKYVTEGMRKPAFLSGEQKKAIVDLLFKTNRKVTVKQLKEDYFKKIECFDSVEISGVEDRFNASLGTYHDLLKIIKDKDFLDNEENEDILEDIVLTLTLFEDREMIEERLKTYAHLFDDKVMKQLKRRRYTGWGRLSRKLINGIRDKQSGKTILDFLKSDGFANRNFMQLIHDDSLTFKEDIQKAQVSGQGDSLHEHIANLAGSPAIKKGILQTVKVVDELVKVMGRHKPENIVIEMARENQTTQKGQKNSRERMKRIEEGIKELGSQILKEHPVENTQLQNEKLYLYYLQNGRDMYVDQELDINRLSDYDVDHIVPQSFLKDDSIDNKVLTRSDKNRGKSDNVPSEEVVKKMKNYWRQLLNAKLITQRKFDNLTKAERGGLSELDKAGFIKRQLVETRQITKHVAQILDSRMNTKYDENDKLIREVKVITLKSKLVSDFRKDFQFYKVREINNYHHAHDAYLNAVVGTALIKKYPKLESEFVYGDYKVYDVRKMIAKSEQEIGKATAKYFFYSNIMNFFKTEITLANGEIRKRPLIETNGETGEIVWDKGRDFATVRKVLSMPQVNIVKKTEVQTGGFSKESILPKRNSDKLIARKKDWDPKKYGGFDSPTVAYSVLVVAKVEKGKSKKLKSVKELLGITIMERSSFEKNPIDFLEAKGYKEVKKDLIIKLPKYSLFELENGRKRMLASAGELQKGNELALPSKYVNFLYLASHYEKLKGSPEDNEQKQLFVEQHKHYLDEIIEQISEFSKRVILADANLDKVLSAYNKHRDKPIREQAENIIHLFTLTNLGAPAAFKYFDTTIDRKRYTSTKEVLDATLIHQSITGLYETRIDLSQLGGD

B1: p53 [Exon 7] 55 bp duplex + cr20 + tracrRNA (mixed)
DNA 1: TCCACTACAAGTACATGTGTAATAGCTCCTGCATGGGGGGCATGAACCGCCGACC
DNA 2: GGTCGGCGGTTCATGCCCCCCATGCAGGAGCTATTACACATGTACTTGTAGTGGA
B1: the Kd in data set [1] stood at 1.5 ± 0.1 nM.

B2: OT#7 probe + cr20 + tracrRNA (mixed)
DNA 1: B1 DNA 1 with T20G, T23C
DNA 2: B1 DNA 2 with A33G, A36C
On to B2, for which the binding result in data set [2] was “binds”.
